Assay results taken from patent US20250218531A1 (ABSCI, published 2025).
Where a chain is given by its changes, count along the chain named. Where “and” joins values, the source holds several entries; their conditions need not be identical. Equal values may be shown once.

B1: Trastuzumab HCDR3 variant ASYAGYSPFDY (Fab, V domains shown)
VH: EVQLVESGGGLVQPGGSLRLSCAASGFNIKDTYIHWVRQAPGKGLEWVARIYPTNGYTRYADSVKGRFTISADTSKNTAYLQMNSLRAEDTAVYYCASYAGYSPFDYWGQGTLVTVSS
VL: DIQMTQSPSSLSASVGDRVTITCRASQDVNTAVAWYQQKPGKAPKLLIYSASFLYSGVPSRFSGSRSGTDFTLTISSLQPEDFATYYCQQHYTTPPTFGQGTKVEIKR
B2: Trastuzumab HCDR3 variant AKYVASGYSLA (Fab, V domains shown)
VH: B1 VH with S98K, A100V, G101A, Y102S, S103G, P104Y, F105S, D106L, Y107A
VL: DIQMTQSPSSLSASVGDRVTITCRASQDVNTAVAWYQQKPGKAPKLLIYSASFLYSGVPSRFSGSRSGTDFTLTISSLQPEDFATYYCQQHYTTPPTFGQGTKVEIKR
B3: Trastuzumab HCDR3 variant AFPWAGHYMER (Fab, V domains shown)
VH: B1 VH with S98F, Y99P, A100W, G101A, Y102G, S103H, P104Y, F105M, D106E, Y107R
VL: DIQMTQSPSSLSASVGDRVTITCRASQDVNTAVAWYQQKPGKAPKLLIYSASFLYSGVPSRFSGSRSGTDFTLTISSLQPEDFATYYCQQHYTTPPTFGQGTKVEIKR
B4: Trastuzumab HCDR3 variant AADGYRGTYSF (Fab, V domains shown)
VH: B1 VH with S98A, Y99D, A100G, G101Y, Y102R, S103G, P104T, F105Y, D106S, Y107F
VL: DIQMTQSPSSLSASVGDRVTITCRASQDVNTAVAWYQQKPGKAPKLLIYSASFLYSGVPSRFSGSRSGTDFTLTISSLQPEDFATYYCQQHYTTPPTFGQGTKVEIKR
B5: Trastuzumab HCDR3 variant ATGYSYLRYYD (Fab, V domains shown)
VH: B1 VH with S98T, Y99G, A100Y, G101S, S103L, P104R, F105Y, D106Y, Y107D
VL: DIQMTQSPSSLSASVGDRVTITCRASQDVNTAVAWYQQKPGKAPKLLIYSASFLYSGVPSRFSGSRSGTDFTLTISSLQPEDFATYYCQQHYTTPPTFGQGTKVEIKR
B6: Trastuzumab HCDR3 variant ARFDLVGAFDY (Fab, V domains shown)
VH: B1 VH with S98R, Y99F, A100D, G101L, Y102V, S103G, P104A
VL: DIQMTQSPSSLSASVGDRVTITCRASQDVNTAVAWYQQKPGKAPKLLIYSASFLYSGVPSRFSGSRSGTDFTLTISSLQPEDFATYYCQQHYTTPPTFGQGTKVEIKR
B7: Trastuzumab HCDR3 variant AKYVLVGSYGV (Fab, V domains shown)
VH: B1 VH with S98K, A100V, G101L, Y102V, S103G, P104S, F105Y, D106G, Y107V
VL: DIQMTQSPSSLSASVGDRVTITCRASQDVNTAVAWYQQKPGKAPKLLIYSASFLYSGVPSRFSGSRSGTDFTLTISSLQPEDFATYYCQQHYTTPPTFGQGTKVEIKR
B8: Trastuzumab HCDR3 variant ARYSYYRYYFE (Fab, V domains shown)
VH: B1 VH with S98R, A100S, G101Y, S103R, P104Y, F105Y, D106F, Y107E
VL: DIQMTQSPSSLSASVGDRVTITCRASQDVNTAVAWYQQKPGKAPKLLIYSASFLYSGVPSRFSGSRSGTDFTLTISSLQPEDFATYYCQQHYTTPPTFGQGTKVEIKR
B9: Trastuzumab HCDR3 variant ATGYSYLRFYD (Fab, V domains shown)
VH: B1 VH with S98T, Y99G, A100Y, G101S, S103L, P104R, D106Y, Y107D
VL: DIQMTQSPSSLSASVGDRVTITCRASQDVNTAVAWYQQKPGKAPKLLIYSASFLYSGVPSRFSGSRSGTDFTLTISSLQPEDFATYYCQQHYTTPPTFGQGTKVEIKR
B10: Trastuzumab HCDR3 variant ARGGYYGYWYYFDY (Fab, V domains shown)
VH: EVQLVESGGGLVQPGGSLRLSCAASGFNIKDTYIHWVRQAPGKGLEWVARIYPTNGYTRYADSVKGRFTISADTSKNTAYLQMNSLRAEDTAVYYCARGGYYGYWYYFDYWGQGTLVTVSS
VL: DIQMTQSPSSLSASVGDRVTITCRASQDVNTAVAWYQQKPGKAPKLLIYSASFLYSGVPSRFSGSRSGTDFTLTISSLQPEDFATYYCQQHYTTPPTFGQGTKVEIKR
B11: Trastuzumab HCDR3 variant ARLAFDSVSFYSDY (Fab, V domains shown)
VH: B10 VH with G99L, G100A, Y101F, Y102D, G103S, Y104V, W105S, Y106F, F108S
VL: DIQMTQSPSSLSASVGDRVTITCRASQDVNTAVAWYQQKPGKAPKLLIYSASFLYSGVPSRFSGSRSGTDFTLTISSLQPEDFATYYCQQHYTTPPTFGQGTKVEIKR
B12: Trastuzumab HCDR3 variant ARYRGGYGGYVFDP (Fab, V domains shown)
VH: B10 VH with G99Y, G100R, Y101G, Y102G, G103Y, Y104G, W105G, Y107V, Y110P
VL: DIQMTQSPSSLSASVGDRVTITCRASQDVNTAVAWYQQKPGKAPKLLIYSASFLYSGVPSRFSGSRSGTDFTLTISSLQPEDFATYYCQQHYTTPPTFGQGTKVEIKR
B13: Trastuzumab HCDR3 variant ARSHYGYYDYYTDF (Fab, V domains shown)
VH: B10 VH with G99S, G100H, Y102G, G103Y, W105D, F108T, Y110F
VL: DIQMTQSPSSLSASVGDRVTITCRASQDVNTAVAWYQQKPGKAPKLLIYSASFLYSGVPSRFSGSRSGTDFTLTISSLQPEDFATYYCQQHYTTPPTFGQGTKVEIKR
B14: Trastuzumab HCDR3 variant ATWPHINTRIYAFDP (Fab, V domains shown)
VH: EVQLVESGGGLVQPGGSLRLSCAASGFNIKDTYIHWVRQAPGKGLEWVARIYPTNGYTRYADSVKGRFTISADTSKNTAYLQMNSLRAEDTAVYYCATWPHINTRIYAFDPWGQGTLVTVSS
VL: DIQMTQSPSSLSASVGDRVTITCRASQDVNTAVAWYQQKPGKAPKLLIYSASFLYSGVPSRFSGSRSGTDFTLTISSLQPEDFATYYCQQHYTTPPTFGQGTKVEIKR
B15: Multi-step trastuzumab HCDR3 variant ARSGGSGYYYYDY (SEQ ID NO: 524) (Fab, V domains shown)
VH: EVQLVESGGGLVQPGGSLRLSCAASGFNIKDTYIHWVRQAPGKGLEWVARIYPTNGYTRYADSVKGRFTISADTSKNTAYLQMNSLRAEDTAVYYCARSGGSGYYYYDYWGQGTLVTVSS
VL: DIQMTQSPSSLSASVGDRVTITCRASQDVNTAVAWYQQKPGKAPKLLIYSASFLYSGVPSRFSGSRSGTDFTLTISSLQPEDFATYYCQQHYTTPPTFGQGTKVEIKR
B16: De novo trastuzumab HCDR2|3 variant IDPANGYT / ARVGGRGYYYYDY (Fab, V domains shown)
VH: B15 VH with Y52D, T54A, S99V, S102R
VL: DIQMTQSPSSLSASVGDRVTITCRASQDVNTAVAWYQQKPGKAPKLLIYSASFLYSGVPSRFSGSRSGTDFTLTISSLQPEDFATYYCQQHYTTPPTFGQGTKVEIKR
notes: also called AI Design 7
B17: De novo trastuzumab HCDR1|2|3 variant GFNIKDYY / IYPSRGYT / ARHGSEGRYTMDV (Fab, V domains shown)
VH: B15 VH with T32Y, T54S, N55R, S99H, G101S, S102E, Y104R, Y106T, Y107M, Y109V
VL: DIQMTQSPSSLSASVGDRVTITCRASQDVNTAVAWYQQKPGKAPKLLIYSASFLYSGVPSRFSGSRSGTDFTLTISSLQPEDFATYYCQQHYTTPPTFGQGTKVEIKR
notes: also called AI Design 3
B18: De novo trastuzumab HCDR1|2|3 variant GFNISDYY / IYPSSGYT / ARDGGVGSYSMDV (Fab, V domains shown)
VH: B15 VH with K30S, T32Y, T54S, N55S, S99D, S102V, Y104S, Y106S, Y107M, Y109V
VL: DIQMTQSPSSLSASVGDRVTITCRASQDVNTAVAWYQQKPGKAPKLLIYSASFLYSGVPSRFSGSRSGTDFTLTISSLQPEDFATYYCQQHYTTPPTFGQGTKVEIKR
notes: also called AI Design 2
B19: De novo trastuzumab HCDR2|3 variant IDPADGYT / AREGGYGYYAMDY (Fab, V domains shown)
VH: B15 VH with Y52D, T54A, N55D, S99E, S102Y, Y106A, Y107M
VL: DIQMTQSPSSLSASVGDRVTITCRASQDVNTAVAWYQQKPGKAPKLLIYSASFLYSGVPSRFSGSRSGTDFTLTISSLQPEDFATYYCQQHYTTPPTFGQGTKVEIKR
notes: also called AI Design 6
B20: De novo trastuzumab HCDR2|3 variant IDPENGYT / ARVGGYGYYYYDY (Fab, V domains shown)
VH: B15 VH with Y52D, T54E, S99V, S102Y
VL: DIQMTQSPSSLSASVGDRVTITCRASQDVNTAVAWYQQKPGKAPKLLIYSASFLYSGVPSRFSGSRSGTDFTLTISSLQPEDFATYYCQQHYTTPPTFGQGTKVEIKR
B21: De novo trastuzumab HCDR2|3 variant IYPANGYT / AREGGVGYYSFAY (Fab, V domains shown)
VH: B15 VH with T54A, S99E, S102V, Y106S, Y107F, D108A
VL: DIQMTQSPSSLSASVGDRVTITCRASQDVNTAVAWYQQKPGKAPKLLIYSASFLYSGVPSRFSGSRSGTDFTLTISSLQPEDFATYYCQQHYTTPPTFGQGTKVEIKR
B22: De novo trastuzumab HCDR1|2|3 variant GFNIKDTW / IDPANGYT / ARVGGRGYYYYDY (Fab, V domains shown)
VH: B15 VH with Y33W, Y52D, T54A, S99V, S102R
VL: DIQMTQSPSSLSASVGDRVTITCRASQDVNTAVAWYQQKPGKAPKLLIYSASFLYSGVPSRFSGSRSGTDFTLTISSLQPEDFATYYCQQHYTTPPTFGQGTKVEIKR
notes: also called AI Design 4
B23: De novo trastuzumab HCDR2|3 variant IYPANGYT / ASSGGGYSYYYTY (Fab, V domains shown)
VH: B15 VH with T54A, R98S, S102G, G103Y, Y104S, D108T
VL: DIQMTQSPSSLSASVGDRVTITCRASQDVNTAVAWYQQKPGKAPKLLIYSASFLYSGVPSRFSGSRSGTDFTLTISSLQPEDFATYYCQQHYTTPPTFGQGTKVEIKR
B24: De novo trastuzumab HCDR1|2|3 variant GFNFKDTY / IYPANGYT / ASDGGSYSYAFDY (Fab, V domains shown)
VH: B15 VH with I29F, T54A, R98S, S99D, G103Y, Y104S, Y106A, Y107F
VL: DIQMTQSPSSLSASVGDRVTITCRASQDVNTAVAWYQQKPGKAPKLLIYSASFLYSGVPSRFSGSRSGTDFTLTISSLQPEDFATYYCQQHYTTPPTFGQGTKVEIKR
notes: also called AI Design 5

biological target: human epidermal growth factor receptor 2 (HER2) extracellular domain (human, UniProt P04626 23-629); experiment: SPR

Q: How did the Kd turn out when B1 was run?
A: The Kd was 202 nM.

Q: And the “log(KD (M))” value?
A: Its value is -6.7 log(M).

Q: How did the Kd turn out when B2 was run?
A: Its Kd is 109 nM.

Q: What about the “log(KD (M))” value of the same binder?
A: The value was -6.96 log(M).

Q: What does the source list for B3?
A: Kd: 95 nM; log(KD (M)): -7.02 log(M)

Q: Which results are given for B4?
A: Kd: 79.2 nM; log(KD (M)): -7.1 log(M)

Q: With B5 as the binder, how does the Kd read?
A: Its Kd is 273 nM.

Q: And the “log(KD (M))” value?
A: Its value is -6.56 log(M).

Q: Which Kd does the source give for B6 here?
A: The Kd was 151 nM.

Q: And the “log(KD (M))” value?
A: Its value is -6.82 log(M).

Q: With B7 as the binder, how does the Kd read?
A: The Kd was 50.2 nM and 50.1 nM.

Q: What about the “log(KD (M))” value of the same binder?
A: The value was -7.3 log(M).

Q: How did the Kd turn out when B8 was run?
A: The Kd was 74.6 nM.

Q: What about the “log(KD (M))” value of the same binder?
A: Its value is -7.13 log(M).

Q: Which results are given for B9?
A: Kd: 164 nM; log(KD (M)): -6.79 log(M)

Q: What does the source list for B10?
A: Kd: 51.2 nM; log(KD (M)): -7.29 log(M)

Q: Which Kd does the source give for B11 here?
A: The Kd was 187 nM.

Q: What about the “log(KD (M))” value of the same binder?
A: Its value is -6.73 log(M).

Q: Which Kd does the source give for B12 here?
A: The Kd was 120 nM.

Q: And the “log(KD (M))” value?
A: The value was -6.92 log(M).

Q: For B13, which Kd is on record?
A: Its Kd is 116 nM.

Q: And the “log(KD (M))” value?
A: Its value is -6.94 log(M).

Q: Which results are given for B14?
A: Kd: 117 nM; log(KD (M)): -6.93 log(M)

biological target: human epidermal growth factor receptor 2 (HER2) extracellular domain (human, UniProt P04626 23-629); experiment: SPR, Fab format

Q: How did the Kd turn out when B15 was run?
A: Its Kd is 1830 nM.

Q: What about the “log(KD (M))” value of the same binder?
A: Its value is -5.74 log M.

Q: What does the source list for B16?
A: Kd: 134 nM; log(KD (M)): -6.87 log M

Q: What does the source list for B17?
A: Kd: 192 nM; log(KD (M)): -6.72 log M

Q: Which results are given for B18?
A: Kd: 1320 nM; log(KD (M)): -5.88 log M

Q: How did the Kd turn out when B19 was run?
A: Its Kd is 160 nM.

Q: What about the “log(KD (M))” value of the same binder?
A: Its value is -6.8 log M.

Q: Which Kd does the source give for B20 here?
A: The Kd was 277 nM.

Q: And the “log(KD (M))” value?
A: The value was -6.56 log M.

Q: For B21, which Kd is on record?
A: The Kd was 213 nM.

Q: What about the “log(KD (M))” value of the same binder?
A: The value was -6.67 log M.

Q: Which results are given for B22?
A: Kd: 394 nM; log(KD (M)): -6.4 log M

Q: What does the source list for B23?
A: Kd: 476 nM; log(KD (M)): -6.32 log M

Q: For B24, which Kd is on record?
A: The Kd was 642 nM.

Q: And the “log(KD (M))” value?
A: Its value is -6.19 log M.
